One assay addresses 1N3R Tau (human) (UniProt P10636).
The target in a further assay is 1N4R Tau (human) (UniProt P10636).

As to “DNAJB1 (from UniProt P25685 1-340) (natural protein)”, the disaggregation of 1N3R Tau fibrils with HSC70, HSPA4 and ATP: Tau shifted to the supernatant fraction (centrifugation, immunoblot) with 1N3R Tau (human) worked out at 50%. For the same substance, the disaggregation of 1N4R Tau fibrils with HSC70, HSPA4 and ATP: Tau shifted to the supernatant fraction (centrifugation, immunoblot) in the assay with 1N4R Tau (human) came out at 26%.
The corresponding values for “DNAJB4 (from UniProt Q9UDY4 1-337) (natural protein)” are 50% and 36%.

Values taken from article PMC7363153.
